# In IntAct's records for PubMed 20627101:
# B1: Induced myeloid leukemia cell differentiation protein Mcl-1 homolog (Mus musculus), P97287 (parent)
# chain: MFGLRRNAVIGLNLYCGGASLGAGGGSPAGARLVAEEAKARREGGGEAALLPGARVVARPPPVGAEDPDVTASAERRLHKSPGLLAVPPEEMAASAAAAIVSPEEELDGCEPEAIGKRPAVLPLLERVSEAAKSSGADGSLPSTPPPPEEEEDDLYRQSLEIISRYLREQATGSKDSKPLGEAGAAGRRALETLRRVGDGVQRNHETAFQGMLRKLDIKNEGDVKSFSRVMVHVFKDGVTNWGRIVTLISFGAFVAKHLKSVNQESFIEPLAETITDVLVRTKRDWLVKQRGWDGFVEFFHVQDLEGGIRNVLLAFAGVAGVGAGLAYLIR
# Variants of: B1
# Conditions: with ch60_human HSPD1, P10809
# Chain of ch60_human HSPD1, P10809 (P10809 whole entry): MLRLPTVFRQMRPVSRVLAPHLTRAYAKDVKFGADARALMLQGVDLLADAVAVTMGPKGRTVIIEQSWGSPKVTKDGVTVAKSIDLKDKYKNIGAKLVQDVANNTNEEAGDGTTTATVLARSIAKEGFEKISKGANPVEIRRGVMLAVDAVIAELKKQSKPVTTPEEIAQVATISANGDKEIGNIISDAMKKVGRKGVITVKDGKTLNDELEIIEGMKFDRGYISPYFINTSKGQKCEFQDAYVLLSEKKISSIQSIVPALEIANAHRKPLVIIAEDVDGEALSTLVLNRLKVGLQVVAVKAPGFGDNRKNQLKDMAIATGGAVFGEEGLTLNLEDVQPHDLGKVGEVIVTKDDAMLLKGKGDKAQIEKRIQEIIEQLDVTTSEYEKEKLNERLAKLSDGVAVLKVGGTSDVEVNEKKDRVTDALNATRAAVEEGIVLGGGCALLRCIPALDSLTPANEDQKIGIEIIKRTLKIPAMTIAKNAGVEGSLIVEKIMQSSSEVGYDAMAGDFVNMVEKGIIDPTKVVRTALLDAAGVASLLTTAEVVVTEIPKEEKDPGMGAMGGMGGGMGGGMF
row,effect of a mutation on the interaction,Variant
1,disrupting interaction,R5G
2,disrupting interaction,R6G
3,disrupting interaction,R32G
